Measured values as given in PMC5131995.

Biological target: recombinant human FcγRIIIa (V158) (human) (UniProt P08637)
Test: SPR

Chain of UniProt P08637 (P08637 17-208): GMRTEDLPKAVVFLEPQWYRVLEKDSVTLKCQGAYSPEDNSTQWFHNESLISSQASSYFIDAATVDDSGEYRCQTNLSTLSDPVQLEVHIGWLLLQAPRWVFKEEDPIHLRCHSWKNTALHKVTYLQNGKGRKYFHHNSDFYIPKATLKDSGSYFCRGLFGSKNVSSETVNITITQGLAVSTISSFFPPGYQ

| Kd [nM] | Substance |
| --- | --- |
| 7.42 | anti-EGFR hIgG1 chimeric mAb with variant hIgG1-Fc from donor vector phIgG-SDIE (from UniProt P01875) |
| 29.4 | anti-EGFR hIgG1 chimeric mAb with variant hIgG1-Fc from donor vector phIgG-mu (from UniProt P01875) |
